# Laboratory results from the supplement of paper PMC9112550, “Optimization of the antimicrobial peptide Bac7 by deep mutational scanning” (BMC Biology, 2022).
# Test system: Escherichia coli TOP10
# Test: shrunken log2 fold change of peptide-encoding DNA abundance (4.5 h post-induction vs induction); higher = less antimicrobial activity (less host growth inhibition)
# Conditions: time post-induction: 4.5 h; library: site-saturation at positions 5, 18, 19, 20
# 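Note: peptides expressed intracellularly from a pBAD plasmid library in pooled LB shake-flask culture, induced with 0.3% L-arabinose, DNA abundance read by NGS, three biological replicates, DESeq2 with apeglm shrinkage.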
row,Sequence,shrunken log2 fold change
1,RRIRERPPRLPRPRPRPRIYPRP,-0.194
2,RRIRCRPPRLPRPRPRPEIAPRP,0.193
3,RRIRWRPPRLPRPRPRPWYMPRP,-0.885
4,RRIRWRPPRLPRPRPRPIMVPRP,-0.0215
5,RRIRHRPPRLPRPRPRPCERPRP,-0.0535
6,RRIRIRPPRLPRPRPRPNLNPRP,-0.237
7,RRIRKRPPRLPRPRPRPPPLPRP,0.661
8,RRIRNRPPRLPRPRPRPDGVPRP,0.221
9,RRIRNRPPRLPRPRPRPWTNPRP,-0.492
10,RRIRWRPPRLPRPRPRPLKFPRP,-0.121
11,RRIRKRPPRLPRPRPRPDASPRP,0.187
12,RRIRVRPPRLPRPRPRPRWNPRP,0.132
13,RRIRIRPPRLPRPRPRPHAPPRP,0.2
14,RRIRGRPPRLPRPRPRPNKYPRP,-0.0952
15,RRIRGRPPRLPRPRPRPTVMPRP,0.074
16,RRIRCRPPRLPRPRPRPKCAPRP,0.121
17,RRIRFRPPRLPRPRPRPEGSPRP,-0.134
18,RRIRRRPPRLPRPRPRPVWDPRP,0.246
19,RRIRMRPPRLPRPRPRPRKIPRP,0.322
20,RRIRERPPRLPRPRPRPRMCPRP,-0.0502
21,RRIRRRPPRLPRPRPRPTEMPRP,0.477
22,RRIRARPPRLPRPRPRPTASPRP,0.74
23,RRIRKRPPRLPRPRPRPKGAPRP,0.217
24,RRIRHRPPRLPRPRPRPTKKPRP,-0.0507
25,RRIRRRPPRLPRPRPRPKCRPRP,0.453

row,Sequence,shrunken log2 fold change
1,RRIRARPPRLPRPRPRPGDPPRP,0.971
2,RRIRGRPPRLPRPRPRPVTYPRP,-0.13
3,RRIRKRPPRLPRPRPRPEHLPRP,0.132
4,RRIRYRPPRLPRPRPRPFYVPRP,-0.602
5,RRIRRRPPRLPRPRPRPLMKPRP,-0.12
6,RRIRARPPRLPRPRPRPCMTPRP,0.591
7,RRIRVRPPRLPRPRPRPPAPPRP,0.794
8,RRIRYRPPRLPRPRPRPFPPPRP,-0.809
9,RRIRKRPPRLPRPRPRPLPCPRP,0.213
10,RRIRPRPPRLPRPRPRPHSYPRP,0.0057
11,RRIRPRPPRLPRPRPRPSWDPRP,-0.0474
12,RRIRWRPPRLPRPRPRPLHHPRP,-0.0749
13,RRIRTRPPRLPRPRPRPSHRPRP,-0.463
14,RRIRYRPPRLPRPRPRPAIPPRP,-0.66
15,RRIRDRPPRLPRPRPRPMHDPRP,0.122
16,RRIRRRPPRLPRPRPRPNQAPRP,0.212
17,RRIRVRPPRLPRPRPRPVWAPRP,0.394
18,RRIRMRPPRLPRPRPRPRFSPRP,0.206
19,RRIRFRPPRLPRPRPRPCNMPRP,-1.46
20,RRIRMRPPRLPRPRPRPTDKPRP,0.851
21,RRIRRRPPRLPRPRPRPRMDPRP,2.27
22,RRIRMRPPRLPRPRPRPNDCPRP,-0.00865
23,RRIRQRPPRLPRPRPRPDIIPRP,-0.0199
24,RRIRLRPPRLPRPRPRPDSHPRP,-0.46
25,RRIRQRPPRLPRPRPRPPGQPRP,0.136

row,Sequence,shrunken log2 fold change
1,RRIRARPPRLPRPRPRPSHFPRP,-0.0734
2,RRIRMRPPRLPRPRPRPHKEPRP,0.0586
3,RRIRHRPPRLPRPRPRPAGDPRP,0.309
4,RRIRTRPPRLPRPRPRPPVQPRP,0.0423
5,RRIRYRPPRLPRPRPRPRLAPRP,0.299
6,RRIRNRPPRLPRPRPRPEKMPRP,-0.00664
7,RRIRRRPPRLPRPRPRPGTWPRP,0.0793
8,RRIRVRPPRLPRPRPRPEEWPRP,0.015
9,RRIRERPPRLPRPRPRPYMKPRP,-0.438
10,RRIRTRPPRLPRPRPRPRTLPRP,-0.121
11,RRIRYRPPRLPRPRPRPIYTPRP,-0.943
12,RRIRLRPPRLPRPRPRPNKIPRP,-0.243
13,RRIRWRPPRLPRPRPRPAGIPRP,0.186
14,RRIRIRPPRLPRPRPRPQSFPRP,0.0784
15,RRIRIRPPRLPRPRPRPVLTPRP,-0.0413
16,RRIRYRPPRLPRPRPRPEMQPRP,0.057
17,RRIRDRPPRLPRPRPRPHDVPRP,-0.00973
18,RRIRSRPPRLPRPRPRPERRPRP,0.23
19,RRIRARPPRLPRPRPRPQSRPRP,-0.112
20,RRIRDRPPRLPRPRPRPCDTPRP,-0.157
21,RRIRCRPPRLPRPRPRPDNCPRP,0.0206
22,RRIRCRPPRLPRPRPRPYGNPRP,-0.277
23,RRIRRRPPRLPRPRPRPTMYPRP,0.0102
24,RRIRQRPPRLPRPRPRPFFVPRP,-0.0254
25,RRIRKRPPRLPRPRPRPEFAPRP,1.03

row,Sequence,shrunken log2 fold change
1,RRIRWRPPRLPRPRPRPTKDPRP,0.214
2,RRIRSRPPRLPRPRPRPWAMPRP,0.0981
3,RRIRCRPPRLPRPRPRPTMKPRP,-0.246
4,RRIRARPPRLPRPRPRPQFTPRP,0.0535
5,RRIRFRPPRLPRPRPRPAYCPRP,-0.219
6,RRIRYRPPRLPRPRPRPKFEPRP,-0.0286
7,RRIRNRPPRLPRPRPRPKCVPRP,-0.0346
8,RRIRRRPPRLPRPRPRPMARPRP,0.0728
9,RRIRIRPPRLPRPRPRPNEAPRP,0.135
10,RRIRLRPPRLPRPRPRPCGPPRP,-0.107
11,RRIRGRPPRLPRPRPRPQKGPRP,0.0565
12,RRIRQRPPRLPRPRPRPIPYPRP,-0.0122
13,RRIRLRPPRLPRPRPRPKLCPRP,0.115
14,RRIRMRPPRLPRPRPRPQDFPRP,0.0427
15,RRIRWRPPRLPRPRPRPTPQPRP,1.63
16,RRIRTRPPRLPRPRPRPYCTPRP,1.36
17,RRIRARPPRLPRPRPRPTWDPRP,0.604
18,RRIRMRPPRLPRPRPRPIDAPRP,0.616
19,RRIRPRPPRLPRPRPRPKPEPRP,0.311
20,RRIRMRPPRLPRPRPRPLNHPRP,-0.0957
21,RRIRMRPPRLPRPRPRPIRWPRP,0.632
22,RRIRPRPPRLPRPRPRPVAHPRP,0.0324
23,RRIRMRPPRLPRPRPRPNSHPRP,-0.451
24,RRIRDRPPRLPRPRPRPYLGPRP,-0.021
25,RRIRERPPRLPRPRPRPTHQPRP,-0.135

row,Sequence,shrunken log2 fold change
1,RRIRCRPPRLPRPRPRPDMEPRP,0.000584
2,RRIRHRPPRLPRPRPRPRSRPRP,-0.132
3,RRIRDRPPRLPRPRPRPSRFPRP,0.128
4,RRIRHRPPRLPRPRPRPKLVPRP,-0.017
5,RRIRRRPPRLPRPRPRPSMYPRP,-0.345
6,RRIRPRPPRLPRPRPRPWAAPRP,0.126
7,RRIRYRPPRLPRPRPRPWKSPRP,-0.118
8,RRIRFRPPRLPRPRPRPHTLPRP,-0.62
9,RRIRMRPPRLPRPRPRPFTGPRP,0.0078
10,RRIRCRPPRLPRPRPRPSQSPRP,-0.221
11,RRIRNRPPRLPRPRPRPYPHPRP,-0.0269
12,RRIRMRPPRLPRPRPRPPPAPRP,2.14
13,RRIRTRPPRLPRPRPRPVHGPRP,-0.0733
14,RRIRFRPPRLPRPRPRPSDLPRP,-0.0388
15,RRIRSRPPRLPRPRPRPGKRPRP,-0.0142
16,RRIRHRPPRLPRPRPRPNSYPRP,0.118
17,RRIRHRPPRLPRPRPRPRSSPRP,-0.00605
18,RRIRERPPRLPRPRPRPIYIPRP,-0.138
19,RRIRRRPPRLPRPRPRPGQLPRP,0.0163
20,RRIRARPPRLPRPRPRPRSEPRP,0.42
21,RRIRPRPPRLPRPRPRPHPVPRP,0.151
22,RRIRYRPPRLPRPRPRPQAKPRP,-0.0419
23,RRIRIRPPRLPRPRPRPDFYPRP,-0.554
24,RRIRQRPPRLPRPRPRPGHLPRP,-0.0699
25,RRIRIRPPRLPRPRPRPNFGPRP,-0.0272
